Values of other authors in PMC10825016.
Where two headings read alike, the source gives them in different places.

How the values were obtained:
[1] = molecular target: GrpE (Escherichia coli) (UniProt P09372)
[2] = molecular target: GrpE (Escherichia coli) (UniProt P09372); remark: listed apart in the source

Sequence of DnaK (P0A6Y8 2-638): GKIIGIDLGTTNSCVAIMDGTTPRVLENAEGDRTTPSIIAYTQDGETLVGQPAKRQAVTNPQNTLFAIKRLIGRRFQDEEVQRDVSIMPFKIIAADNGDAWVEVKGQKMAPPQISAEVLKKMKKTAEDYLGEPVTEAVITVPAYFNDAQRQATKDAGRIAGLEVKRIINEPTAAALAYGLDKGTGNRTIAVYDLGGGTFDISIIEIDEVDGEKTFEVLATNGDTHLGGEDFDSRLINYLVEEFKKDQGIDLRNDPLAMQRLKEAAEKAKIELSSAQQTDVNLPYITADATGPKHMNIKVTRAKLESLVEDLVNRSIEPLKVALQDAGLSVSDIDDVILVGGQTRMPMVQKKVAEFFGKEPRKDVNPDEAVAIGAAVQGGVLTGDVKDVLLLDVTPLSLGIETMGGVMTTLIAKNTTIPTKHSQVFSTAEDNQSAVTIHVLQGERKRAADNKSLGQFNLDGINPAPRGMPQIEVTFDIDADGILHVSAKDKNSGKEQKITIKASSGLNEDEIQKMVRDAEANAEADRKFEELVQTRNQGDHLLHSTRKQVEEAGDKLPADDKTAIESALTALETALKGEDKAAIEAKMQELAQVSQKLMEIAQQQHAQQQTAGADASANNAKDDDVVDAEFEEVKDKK
Sequence of GrpE (Escherichia coli) (P09372 whole entry): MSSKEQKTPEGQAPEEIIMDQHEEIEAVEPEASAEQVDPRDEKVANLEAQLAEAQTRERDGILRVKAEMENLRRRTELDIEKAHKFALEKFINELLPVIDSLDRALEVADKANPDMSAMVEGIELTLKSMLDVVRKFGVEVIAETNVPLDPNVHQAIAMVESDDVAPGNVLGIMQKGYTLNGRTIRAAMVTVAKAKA

## DnaK (from UniProt P0A6Y8)
[1]
  Kd: 11 nM
[2]
  Kd: 220 nM
